Test results from PMC11903765, “ARR1 and AHP interactions in the multi-step phosphorelay system” (Frontiers in Plant Science, 2025).
Each block holds one molecule with its values, some of them ahead of it.

Key:
[1] = target: biotinylated ARR1-REC-GARP (ARR1 residues 1-296), construct for BLI (Arabidopsis thaliana) (UniProt Q940D0); experiment: BLI; biotinylated ARR1-REC-GARP immobilised on Octet SA biosensors, AHPs as analytes; fit of the binding kinetics; 20 mM HEPES/NaOH pH 7.0, 50 mM NaCl, 50 mM KCl, 0.5 mM TCEP, 0.5% BSA, 0.05% Tween 20; 25°C
[2] = target: biotinylated ARR1-REC-GARP (ARR1 residues 1-296), construct for BLI (Arabidopsis thaliana) (UniProt Q940D0); experiment: BLI; biotinylated ARR1-REC-GARP immobilised on Octet SA biosensors, AHPs as analytes; fit of the steady-state data; 20 mM HEPES/NaOH pH 7.0, 50 mM NaCl, 50 mM KCl, 0.5 mM TCEP, 0.5% BSA, 0.05% Tween 20; 25°C
[3] = target: T1, ARR1-REC-GARP (ARR1 residues 38-296), construct for structural studies (Arabidopsis thaliana, UniProt Q940D0 38-296); experiment: crystal structure; complex from mixing 1 ARR1 : 1.5 AHP1, purified by SEC; crystals from Morpheus G11, pH 8.5, 32.5 mg/mL; 2.9 Å; two complexes in the asymmetric unit; conditions: both partners purified
T1 construct: ARR1, Arabidopsis thaliana, UniProt Q940D0, residues 38-296: REC domain (38-158), linker (159-235, not visible in the map), GARP motif (236-296); cloned into pMCSG53; TEV protease was not able to cleave the His-tag, so it stayed on the protein; also called ARR1-RG; source: E. coli BL21 Gold, purified (Ni-NTA; then SEC of the complex)
T1 sequence (looked up): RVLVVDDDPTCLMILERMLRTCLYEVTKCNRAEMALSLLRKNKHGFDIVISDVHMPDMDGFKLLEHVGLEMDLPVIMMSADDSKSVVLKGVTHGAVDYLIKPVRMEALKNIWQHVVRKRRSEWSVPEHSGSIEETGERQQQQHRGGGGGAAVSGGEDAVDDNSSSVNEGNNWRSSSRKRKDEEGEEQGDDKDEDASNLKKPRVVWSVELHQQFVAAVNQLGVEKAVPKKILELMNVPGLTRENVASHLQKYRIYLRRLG

[4] = target: T2, biotinylated ARR1-REC-GARP (ARR1 residues 1-296), construct for BLI (Arabidopsis thaliana, UniProt Q940D0 1-296, biotin on the Avi-tag (by co-expressed BirA)); experiment: BLI; biotinylated ARR1-REC-GARP immobilised on Octet SA biosensors, AHPs as analytes; fit of the binding kinetics; 20 mM HEPES/NaOH pH 7.0, 50 mM NaCl, 50 mM KCl, 0.5 mM TCEP, 0.5% BSA, 0.05% Tween 20; 25°C; conditions: both partners purified
T2 construct: ARR1, Arabidopsis thaliana, UniProt Q940D0, residues 1-296 (REC domain and GARP motif); cloned into pMCSG62, which provides the Avi-tag; The results define ARR1-RG as 38-296; the methods give 1-296 for the BLI construct; also called ARR1-RG; biotinylated variant of ARR1-RG; source: E. coli BL21 Gold, co-expressed with BirA, purified (Ni-NTA)
T2 sequence (looked up): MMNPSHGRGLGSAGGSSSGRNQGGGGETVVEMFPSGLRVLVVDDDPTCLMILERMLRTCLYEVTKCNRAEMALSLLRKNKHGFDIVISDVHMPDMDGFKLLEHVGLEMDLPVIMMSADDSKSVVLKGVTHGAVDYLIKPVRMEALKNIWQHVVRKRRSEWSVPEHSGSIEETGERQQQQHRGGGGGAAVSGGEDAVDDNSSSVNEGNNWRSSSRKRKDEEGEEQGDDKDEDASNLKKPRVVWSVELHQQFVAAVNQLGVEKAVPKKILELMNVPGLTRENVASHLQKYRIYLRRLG

[5] = target: T2, biotinylated ARR1-REC-GARP (ARR1 …); experiment: BLI; biotinylated ARR1-REC-GARP immobilised on Octet SA biosensors, AHPs as analytes; fit of the steady-state data; 20 mM HEPES/NaOH pH 7.0, 50 mM NaCl, 50 mM KCl, 0.5 mM TCEP, 0.5% BSA, 0.05% Tween 20; 25°C; conditions: both partners purified

Molecule: AHP4 (Arabidopsis histidine-containing phosphotransfer protein 4) (natural protein)
- Kd [1]: 166 nM
- koff [1]: 0.06 s⁻¹
- kon [1]: 360000 M⁻¹ s⁻¹
- Kd [2]: 170 nM

Molecule: AHP5 (Arabidopsis histidine-containing phosphotransfer protein 5) (natural protein)
- Kd [1]: 152 nM
- koff [1]: 0.089 s⁻¹
- kon [1]: 588000 M⁻¹ s⁻¹
- Kd [2]: 150 nM

B1: AHP1 (Arabidopsis histidine-containing phosphotransfer protein 1), full length (natural protein, Arabidopsis thaliana, UniProt Q9ZNV9 1-154, looked up)
chain: MDLVQKQKSLQDYTKSLFLEGILDSQFLQLQQLQDESNPDFVSQVVTLFFQDSDRILNDLSLSLDQQVVDFKKVDPHVHQLKGSSSSIGAQRVKNACVVFRSFCEQQNVEACHRCLQQVKQEYYLVKNRLETLFKLEQQIVASGGMIPAVELGF
notes: AHP1, Arabidopsis thaliana, UniProt Q9ZNV9, full-length protein cloned from A. thaliana cDNA into pMCSG53; Unphosphorylated; source: E. coli BL21 Gold, purified (Ni-NTA, TEV digestion, second Ni-NTA, SEC)
- stoichiometry N [3]: 1
- Kd [4]: 94 nM
- koff [4]: 0.0423 s⁻¹
- kon [4]: 444000 M⁻¹ s⁻¹
- Kd [5]: 94 nM

The remaining lines, values ahead:

- Kd [1]: 174 nM
- koff [1]: 0.0917 s⁻¹
- kon [1]: 522000 M⁻¹ s⁻¹
- Kd [2]: 175 nM
Molecule: AHP3 (Arabidopsis histidine-containing phosphotransfer protein 3) (natural protein)

- Kd [1]: 160 nM
- koff [1]: 0.0913 s⁻¹
- kon [1]: 573000 M⁻¹ s⁻¹
- Kd [2]: 160 nM
Molecule: AHP2 (Arabidopsis histidine-containing phosphotransfer protein 2) (natural protein)
